How the values were obtained:
HLA-B*83:01 = assay: IEDB peptide-MHC binding, purified MHC/competitive/fluorescence; filed as Kd, often an IC50 or EC50 that approximates it; ≥ and ≤ were set here for values at or beyond the usual limits of such assays; settings: source organism: Rickettsia bellii RML369-C
HLA-B*45:06 = assay: as above; settings: source organism: Rickettsia bellii RML369-C
HLA-B*15:42 = assay: as above; settings: source organism: Rickettsia bellii RML369-C
HLA-C*06:02 = assay: as above; settings: source organism: Rickettsia bellii RML369-C
HLA-A*68:23 = assay: as above; settings: source organism: Rickettsia bellii RML369-C
HLA-B*15:02 = assay: as above; settings: source organism: Rickettsia bellii RML369-C
HLA-B*27:20 = assay: as above; settings: source organism: Rickettsia bellii RML369-C
HLA-C*08:02 = assay: IEDB peptide-MHC binding, purified MHC/direct/fluorescence; filed as Kd, often an IC50 or EC50 that approximates it; ≥ and ≤ were set here for values at or beyond the usual limits of such assays; settings: source organism: Rickettsia bellii RML369-C
HLA-C*05:01 = assay: as above; settings: source organism: Rickettsia bellii RML369-C
HLA-C*12:03 = assay: as above; settings: source organism: Rickettsia bellii RML369-C
HLA-C*03:03 = assay: as above; settings: source organism: Rickettsia bellii RML369-C
HLA-C*14:02 = assay: as above; settings: source organism: Rickettsia bellii RML369-C
HLA-C*15:02 = assay: as above; settings: source organism: Rickettsia bellii RML369-C
HLA-C*07:02 = assay: as above; settings: source organism: Rickettsia bellii RML369-C
HLA-B*18:01 = assay: IEDB peptide-MHC binding, purified MHC/competitive/fluorescence; filed as Kd, often an IC50 or EC50 that approximates it; ≥ and ≤ were set here for values at or beyond the usual limits of such assays; settings: source organism: Xanthobacter autotrophicus Py2
HLA-A*25:01 [1] = assay: as above; settings: source organism: Xanthobacter autotrophicus Py2
HLA-B*51:01 [2] = assay: as above; settings: source organism: Xanthobacter autotrophicus Py2
HLA-A*02:12 = assay: as above; settings: source organism: Xanthobacter autotrophicus Py2
HLA-A*03:01 = assay: as above; settings: source organism: Xanthobacter autotrophicus Py2
HLA-A*02:01 = assay: as above; settings: source organism: Xanthobacter autotrophicus Py2
HLA-B*57:01 = assay: as above; settings: source organism: Xanthobacter autotrophicus Py2
HLA-A*80:01 [3] = assay: as above; settings: source organism: Xanthobacter autotrophicus Py2
HLA-B*15:17 = assay: as above; settings: source organism: Xanthobacter autotrophicus Py2
HLA-A*29:02 [4] = assay: as above; settings: source organism: Xanthobacter autotrophicus Py2
HLA-A*69:01 = assay: as above; settings: source organism: Xanthobacter autotrophicus Py2
HLA-B*46:01 = assay: as above; settings: source organism: Xanthobacter autotrophicus Py2
HLA-A*26:01 = assay: as above; settings: source organism: Xanthobacter autotrophicus Py2
HLA-A*68:02 = assay: as above; settings: source organism: Xanthobacter autotrophicus Py2
HLA-B*27:03 = assay: as above; settings: source organism: Xanthobacter autotrophicus Py2
HLA-A*25:01 [5] = assay: IEDB peptide-MHC binding, purified MHC/direct/fluorescence; filed as Kd, often an IC50 or EC50 that approximates it; ≥ and ≤ were set here for values at or beyond the usual limits of such assays; settings: source organism: Orthohantavirus tulaense
HLA-B*51:01 [6] = assay: as above; settings: source organism: Orthohantavirus tulaense
HLA-A*80:01 [7] = assay: as above; settings: source organism: Orthohantavirus andesense
HLA-A*01:01 = assay: as above; settings: source organism: Orthohantavirus andesense
HLA-B*40:01 = assay: as above; settings: source organism: Orthohantavirus tulaense
HLA-A*29:02 [8] = assay: as above; settings: source organism: Orthohantavirus tulaense
HLA-B*07:02 = assay: as above; settings: source organism: Orthohantavirus tulaense

FAYKTGSSM gave a Kd (HLA-B*83:01) of at least 5000 nM, a Kd (HLA-B*45:06) of at least 5000 nM and a Kd (HLA-B*15:42) of at least 5000 nM. It also gave a Kd (HLA-C*06:02) of 125 nM, a Kd (HLA-A*68:23) of 51.2 nM and a Kd (HLA-B*15:02) of 12.7 nM. For the same sequence, the Kd (HLA-B*27:20) was 23.4 nM, the Kd (HLA-C*08:02) was 90 nM and the Kd (HLA-C*05:01) was 1480 nM. For the same sequence, the Kd (HLA-C*12:03) was at most 1 nM, the Kd (HLA-C*03:03) was at most 1 nM and the Kd (HLA-C*14:02) was 114 nM. The Kd (HLA-C*15:02) was 4 nM and the Kd (HLA-C*07:02) was 876 nM.
GQMYNMNTL was tested, and the Kd (HLA-B*18:01) was at least 20000 nM, the Kd (HLA-A*25:01 [1]) was at least 20000 nM and the Kd (HLA-B*51:01 [2]) was at least 20000 nM. It also gave a Kd (HLA-A*02:12) of 1.4 nM, a Kd (HLA-A*03:01) of at least 20000 nM and a Kd (HLA-A*02:01) of at least 20000 nM. It also gave a Kd (HLA-B*57:01) of at least 20000 nM, a Kd (HLA-A*80:01 [3]) of at least 20000 nM and a Kd (HLA-B*15:17) of at least 20000 nM. It also gave a Kd (HLA-A*29:02 [4]) of at least 20000 nM, a Kd (HLA-A*69:01) of at least 20000 nM and a Kd (HLA-B*46:01) of at least 20000 nM. The Kd (HLA-A*26:01) was at least 20000 nM, the Kd (HLA-A*68:02) was at least 20000 nM and the Kd (HLA-B*27:03) was at least 20000 nM.
Sequence ATATWFQYY has a Kd (HLA-A*25:01 [5]) of at least 20000 nM, a Kd (HLA-B*51:01 [6]) of at least 20000 nM and a Kd (HLA-A*80:01 [7]) of 14.2 nM. For the same sequence, the Kd (HLA-A*01:01) was 16.3 nM, the Kd (HLA-B*40:01) was at least 20000 nM and the Kd (HLA-A*29:02 [8]) was at most 1 nM. It also gave a Kd (HLA-B*07:02) of at least 20000 nM.

From the Immune Epitope Database (IEDB)
